Where a chain is given by its changes, count along the chain named. Names may count otherwise.
B1: Tm6PGDH (6-phosphogluconate dehydrogenase from Thermotoga maritima) (Thermotoga maritima MSB8) (protein)
chain: MKSHIGLIGLAVMGQNLALNIARKGYKVSVYNRTAQRTEEFVKNRVTNEEIEPHYDIESFVKSLERPRKIILMVKAGKPVDDTISQLLPHLEPGDLIIDGGNSHYMDTERRFKELSEKGILFLGMGVSGGEYGALHGPSLMPGGSREAYNLVEEILLEIAAKTEDGPCCTYVGERSAGHFVKMVHNGIEYAIMQAIAEVYHIMRDVLSLSSEEMSSIFEEWNRGELSSFLVEITYKILRKKDEETGKPMVDVILDKAEQKGTGKWTSQAALDLGIPTPSINLAVVERVISHFKDIRTRLSKLYNKRRSATQGSEEFLRDLRNSLFFAMFMAFSQGMWLIAEASKEFGYGVSLSEVLRIWKGGCIIRAKLIDTLRRYISNENAYLLENEEVMNLLKGKIDSLKNILKASIENEIPVPVLSSSYNYFMSLTEERLPANLIQAQRDFFGAHTFERVDREGVFHINWEEGEIG
notes: full length in pET20b, C-terminal His tag (LEHHHHHH from primer), E. coli BL21(DE3), Ni-NTA; primers encode N-terminus MKSHIGLI and C-terminus NWEEGEIG before the tag
B2: Tm6PGDH (6-phosphogluconate dehydrogenase from Thermotoga maritima) (Thermotoga maritima MSB8; N32E/R33I/T34I) (protein)
chain: B1 chain with N32E, R33I, T34I
notes: as for B1
B3: Tm6PGDH (6-phosphogluconate dehydrogenase from Thermotoga maritima) (Thermotoga maritima MSB8; N32D/R33I/T34I) (protein)
chain: B1 chain with N32D, R33I, T34I
notes: as for B1
B4: Tm6PGDH (6-phosphogluconate dehydrogenase from Thermotoga maritima) (Thermotoga maritima MSB8; N32D/R33L/T34S) (protein)
chain: B1 chain with N32D, R33L, T34S
notes: as for B1
B5: Tm6PGDH (6-phosphogluconate dehydrogenase from Thermotoga maritima) (Thermotoga maritima MSB8; N32D) (protein)
chain: B1 chain with N32D
notes: as for B1

Each molecule was assayed against T1, Tm6PGDH (6-phosphogluconate dehydrogenase from Thermotoga maritima) (Thermotoga maritima, UniProt Q9WYR9, N32D/R33L/T34S) (assay: NAD(P)H formation at […] nm, Michaelis-Menten fit). Conditions: 2 mM 6-phosphogluconate, 5 mM MgCl2, 0.5 mM MnCl2, 100 mM HEPES pH 7.5, 70 °C; apparent Km; read-out: Km (mM) / NADP^+.
T1 construct: gene TM_0438; full length in pET20b, C-terminal His tag (LEHHHHHH from primer), E. coli BL21(DE3), Ni-NTA; primers encode N-terminus MKSHIGLI and C-terminus NWEEGEIG before the tag
T1 sequence (Q9WYR9 entry or part of it N32D/R33L/T34S): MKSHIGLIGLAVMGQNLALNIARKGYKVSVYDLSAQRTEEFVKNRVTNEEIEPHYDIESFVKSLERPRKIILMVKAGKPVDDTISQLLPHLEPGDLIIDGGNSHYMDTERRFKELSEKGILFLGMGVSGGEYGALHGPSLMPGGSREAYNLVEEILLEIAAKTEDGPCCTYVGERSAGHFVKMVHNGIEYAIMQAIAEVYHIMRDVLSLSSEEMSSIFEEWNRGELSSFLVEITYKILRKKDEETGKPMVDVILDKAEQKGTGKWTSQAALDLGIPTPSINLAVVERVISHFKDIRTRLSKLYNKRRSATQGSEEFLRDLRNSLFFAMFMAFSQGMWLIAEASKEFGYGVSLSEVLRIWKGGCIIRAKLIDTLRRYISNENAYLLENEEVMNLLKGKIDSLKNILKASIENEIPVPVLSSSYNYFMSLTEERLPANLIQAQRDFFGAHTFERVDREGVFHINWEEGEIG
Type: biochemical
Source text: (§1) (6-phosphogluconate dehydrogenase from Thermotoga maritima)
For `NC(=O)c1ccc[n+]([C@@H]2O[C@H](COP(=O)(O)OP(=O)(O)OC[C@H]3O[C@@H](n4cnc5c(N)ncnc54)[C@H](OP(=O)(O)O)[C@@H]3O)[C@@H](O)[C@H]2O)c1` [NADP^+], the Km was over 100 mM.

The molecules below were run on NC(=O)c1ccc[n+]([C@@H]2O[C@H](COP(=O)(O)OP(=O)(O)OC[C@H]3O[C@@H](n4cnc5c(N)ncnc54)[C@H](O)[C@@H]3O)[C@@H](O)[C@H]2O)c1 (assay: purified protein). Conditions: 2 mM 6-phosphogluconate, 5 mM MgCl2, 0.5 mM MnCl2, 100 mM HEPES pH 7.5, 70 °C, apparent Km.
Type: biochemical, Thermotoga maritima
Source text: as §1
B1 was tested, and the Km was 4.3 ± 0.4 mM, the kcat was 23.3 ± 2 s⁻¹ and the kcat/Km was 5400 M⁻¹ s⁻¹. B2 gave a Km of 2.5 ± 0.2 mM, a kcat of 47.9 ± 2.2 s⁻¹ and a kcat/Km of 19200 M⁻¹ s⁻¹. Molecule B3 has a Km of 3.9 ± 0.4 mM, a kcat of 32.2 ± 2.2 s⁻¹ and a kcat/Km of 8300 M⁻¹ s⁻¹. B4 gave a Km of 7.5 ± 0.8 mM, a kcat of 25.4 ± 1.4 s⁻¹ and a kcat/Km of 3400 M⁻¹ s⁻¹. Molecule B5 has a Km of 4.0 ± 0.1 mM, a kcat of 29.3 ± 1.2 s⁻¹ and a kcat/Km of 7300 M⁻¹ s⁻¹.

These molecules were tested on NC(=O)c1ccc[n+]([C@@H]2O[C@H](COP(=O)(O)OP(=O)(O)OC[C@H]3O[C@@H](n4cnc5c(N)ncnc54)[C@H](OP(=O)(O)O)[C@@H]3O)[C@@H](O)[C@H]2O)c1 (assay: purified protein). Conditions: 2 mM 6-phosphogluconate, 5 mM MgCl2, 0.5 mM MnCl2, 100 mM HEPES pH 7.5, 70 °C, apparent Km.
Type: biochemical, Thermotoga maritima
Source text: as §1
Work on B1 yielded a Km of 0.005 ± 0.0004 mM, a kcat of 17.6 ± 0.7 s⁻¹ and a kcat/Km of 3.52e+06 M⁻¹ s⁻¹. Molecule B2 has a Km of 79 ± 20 mM, a kcat of 15.9 ± 7.9 s⁻¹ and a kcat/Km of 200 M⁻¹ s⁻¹. Molecule B3 has a Km of 70 ± 17 mM, a kcat of 15.9 ± 5.8 s⁻¹ and a kcat/Km of 200 M⁻¹ s⁻¹. B5 gave a Km of 2.3 ± 0.1 mM, a kcat of 16.7 ± 1 s⁻¹ and a kcat/Km of 7300 M⁻¹ s⁻¹.

From paper PMC5090862, “Coenzyme Engineering of a Hyperthermophilic 6-Phosphogluconate Dehydrogenase from NADP^+ to NAD^+ with Its Application to Biobatteries” (Scientific Reports, 2016)
